According to patent US20260209334A1 (MAX PLANCK GESELLSCHAFT ZUR F RDERUNG DER WISSENSCHAFTEN E V, published 2026):
Like-named read-outs stand apart in the source and are kept apart here. Blank lines part the entries; values can stand above or below the binder they belong to.

How the values were obtained:
[1] = target: T1, human IL-17F with C-terminal Avi-tag, biotinylated, immobilized on BLI sensors (human, UniProt Q96PD4 31-163, biotin on the C-terminal Avi-tag (BirA)); assay: BLI, biotinylated IL-17F immobilized on streptavidin sensors, monovalent VHH as analyte (20, 100 nM), 2:1 heterogenous fit, low affinity component
T1 construct: also called biotinylated IL-17F; not shown: C-terminal Avi-tag
T1 sequence: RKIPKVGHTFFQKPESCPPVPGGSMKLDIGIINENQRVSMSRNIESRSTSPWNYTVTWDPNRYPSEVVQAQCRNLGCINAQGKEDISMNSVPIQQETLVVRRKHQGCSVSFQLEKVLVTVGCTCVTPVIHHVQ

[2] = target: recombinant human IL-17A (produced in HEK cells, Proteintech HZ-1113) (human, UniProt Q16552 24-155); assay: cell-based or functional assay
Chain of recombinant human IL-17A (produced in HEK cells, Proteintech HZ-1113) (Q16552 24-155 limits assumed): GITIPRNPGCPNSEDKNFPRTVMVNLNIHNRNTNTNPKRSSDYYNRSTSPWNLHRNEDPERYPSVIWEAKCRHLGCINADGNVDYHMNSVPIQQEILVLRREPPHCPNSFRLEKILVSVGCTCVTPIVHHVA

[3] = target: T2, recombinant human IL-17F (produced in HEK cells, Proteintech HZ-1116) (human, UniProt Q96PD4 31-163); assay: cell-based or functional assay
T2 sequence (looked up): T1 sequence

[4] = target: recombinant human IL-17A/F (produced in CHO cells, R&D Systems 5837-IL) (human, UniProt Q16552 24-155; Q96PD4 31-163, limits assumed); assay: cell-based or functional assay
Chain of recombinant human IL-17A/F (produced in CHO cells, R&D Systems 5837-IL) (Q16552 24-155 limits assumed, chain 1 of 2, one chain of several): as the sequence (Q16552 24-155 limits assumed) above

[5] = target: T3, human IL-17A with C-terminal Avi-tag, biotinylated, immobilized on BLI sensors (human, UniProt Q16552 24-155, biotin on the C-terminal Avi-tag (BirA)); assay: BLI, biotinylated IL-17A immobilized on streptavidin sensors, monovalent VHH as analyte (25, 50, 100 nM), 2:1 heterogenous fit, high affinity component
T3 construct: also called biotinylated IL-17A; not shown: C-terminal Avi-tag

[6] = target: T1, human IL-17F with C-terminal Avi-tag, …; assay: BLI, biotinylated IL-17F immobilized, monovalent VHH as analyte; 2:1 heterogenous model, high affinity component
[7] = target: T2, recombinant human IL-17F (produced in …); assay: cell-based or functional assay; remark: listed apart in the source
[8] = target: T3, human IL-17A with C-terminal Avi-tag, …; assay: BLI, biotinylated IL-17A immobilized, monovalent VHH as analyte; 2:1 heterogenous model, high affinity component
[9] = target: T3, human IL-17A with C-terminal Avi-tag, …; assay: BLI, biotinylated IL-17A immobilized on streptavidin sensors, monovalent VHH as analyte (20, 100 nM), 2:1 heterogenous fit, low affinity component
[10] = target: T1, human IL-17F with C-terminal Avi-tag, …; assay: BLI, biotinylated IL-17F immobilized, monovalent VHH as analyte
[11] = target: T2, recombinant human IL-17F (produced in …); assay: cell-based or functional assay; remark: listed apart in the source
[12] = target: T3, human IL-17A with C-terminal Avi-tag, …; assay: BLI, biotinylated IL-17A immobilized, monovalent VHH as analyte

KD2 [1]: 60 nM | Neutralization potency, ranking from 1 = the best to 4 (HEK-Blue IL-17 reporter cells) [2]: 2 rank | Neutralization potency, ranking from 1 = the best to 4 (HEK-Blue IL-17 reporter cells) [3]: 4 rank | Neutralization potency, ranking from 1 = the best to 4 (HEK-Blue IL-17 reporter cells) [4]: 3 rank | Kd [5]: 1 nM | Kd [6]: 6 nM | IC50 (read off the curve), SEAP reporter, HEK-Blue IL-17 cells, 0.85 nM IL-17F [7]: ~5 nM | Kd [8]: 1 nM | KD2 [9]: 60 nM
B1: Re42F08 (VHH)
VHH: QVQLVESGGGLVKAGGSLRLSCVVSGHTSEISAMGWYRQAPGKQRELVALITSRSGDTHYSDSVKGRFSISRDNAKNTMYLQMNSLNPDDTAVYYCVHNEPGHLYMAQGTQVTVSS
notes: Class B, first generation

Kd [10]: 12 nM | IC50 (read off the curve), SEAP reporter, HEK-Blue IL-17 cells, 0.85 nM IL-17F [11]: ~0.06 mg/L | Neutralization potency, ranking from 1 = the best to 4 (HEK-Blue IL-17 reporter cells) [2]: 2 rank | Neutralization potency, ranking from 1 = the best to 4 (HEK-Blue IL-17 reporter cells) [3]: 4 rank | Neutralization potency, ranking from 1 = the best to 4 (HEK-Blue IL-17 reporter cells) [4]: 2 rank | Kd [12]: 0.15 nM
B2: VHH664 (VHH)
VHH: EVQLVESGGGLVQAGGSLRLSCAASGRTYDAMGWLRQAPGKEREFVAAISGSGDDTYYADSVKGRFTISKDNAGITMYLQMNSLKPEDTAVYYCATRRGLYYVWDSNDYENWGQGTQVTVSS
notes: Control VHH of Ablynx, disclosed in WO2012156219
